What follows are binders tested against mixture of three Der p 2 specific recombinant human IgE clones H10, H12, P4E (human) (UniProt P01854) (assay: RBL-SX38 IgE displacement, FACS).
Chain of mixture of three Der p 2 specific recombinant human IgE clones H10, H12, P4E (human) (P01854 other isoform, or with tags, fused parts or gaps): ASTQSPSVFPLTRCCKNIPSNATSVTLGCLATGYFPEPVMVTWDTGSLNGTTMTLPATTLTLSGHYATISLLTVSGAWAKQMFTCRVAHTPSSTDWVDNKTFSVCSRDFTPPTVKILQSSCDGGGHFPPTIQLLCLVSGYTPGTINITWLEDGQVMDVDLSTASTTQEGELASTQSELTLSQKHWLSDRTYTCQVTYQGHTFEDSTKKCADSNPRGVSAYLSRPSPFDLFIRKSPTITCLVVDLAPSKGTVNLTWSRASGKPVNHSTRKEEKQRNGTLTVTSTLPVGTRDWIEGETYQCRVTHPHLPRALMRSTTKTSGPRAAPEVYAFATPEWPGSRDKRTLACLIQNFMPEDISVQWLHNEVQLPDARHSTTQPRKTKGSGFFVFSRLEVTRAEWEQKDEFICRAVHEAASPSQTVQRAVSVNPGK

Binder	EC50 [nM]	Max effect/effect 1 µM [%]
NIgG4E1A1(G4S)3 (Fc fusion) chain 1: DVQLQESGGGLVQAGGSLRLSCLASGRTFTTTSGYNMGWFRQAPGKEREFVAGIKWVSGSNRAYAESVKGRFTISRDNAKNTVYLQMNSLKPEDTAVYYCAAATGQSYVPIREYEYVYWGQGTQVTVSGGGGSGGGGSGGGGSGPPCPPCPAPEFLGGPSVFLFPPKPKDTLMISRTPEVTCVVVDVSQEDPEVQFNWYVDGVEVHNAKTKPREEQFNSTYRVVSVLTVLHQDWLNGKEYKCKVSNKGLPSSIEKTISKAKGQPREPQVYTLPPCQEEMTKNQVSLWCLVKGFYPSDIAVEWESNGQPENNYKTTPPVLDSDGSFFLYSRLTVDKSRWQEGNVFSCSVMHEALHNHYTQKSLSLSLGK chain 2: EVQLLESGGGLVQPGGSLRLSCAASGFTFGNYDMAWVRQAPGKRPEWVSSIDTGGDITHYADSVKGRFTISRDNAKNTLYLQMNSLRPEDTAVYWCATDEEYALGPNEFDYYGQGTLVTVSSGGGGSGGGGSGGGGSGPPCPPCPAPEFLGGPSVFLFPPKPKDTLMISRTPEVTCVVVDVSQEDPEVQFNWYVDGVEVHNAKTKPREEQFNSTYRVVSVLTVLHQDWLNGKEYKCKVSNKGLPSSIEKTISKAKGQPREPQVCTLPPSQEEMTKNQVSLSCAVKGFYPSDIAVEWESNGQPENNYKTTPPVLDSDGSFFLVSRLTVDKSRWQEGNVFSCSVMHEALHNHYTQKSLSLSLGK	3.7	98
CIgG4E1A1(G4S)2 (Fc fusion) chain 1: GPPCPPCPAPEFLGGPSVFLFPPKPKDTLMISRTPEVTCVVVDVSQEDPEVQFNWYVDGVEVHNAKTKPREEQFNSTYRVVSVLTVLHQDWLNGKEYKCKVSNKGLPSSIEKTISKAKGQPREPQVYTLPPCQEEMTKNQVSLWCLVKGFYPSDIAVEWESNGQPENNYKTTPPVLDSDGSFFLYSRLTVDKSRWQEGNVFSCSVMHEALHNHYTQKSLSLSLGKGGGGSGGGGSDVQLQESGGGLVQAGGSLRLSCLASGRTFTTTSGYNMGWFRQAPGKEREFVAGIKWVSGSNRAYAESVKGRFTISRDNAKNTVYLQMNSLKPEDTAVYYCAAATGQSYVPIREYEYVYWGQGTQVTVS chain 2: GPPCPPCPAPEFLGGPSVFLFPPKPKDTLMISRTPEVTCVVVDVSQEDPEVQFNWYVDGVEVHNAKTKPREEQFNSTYRVVSVLTVLHQDWLNGKEYKCKVSNKGLPSSIEKTISKAKGQPREPQVCTLPPSQEEMTKNQVSLSCAVKGFYPSDIAVEWESNGQPENNYKTTPPVLDSDGSFFLVSRLTVDKSRWQEGNVFSCSVMHEALHNHYTQKSLSLSLGKGGGGSGGGGSEVQLLESGGGLVQPGGSLRLSCAASGFTFGNYDMAWVRQAPGKRPEWVSSIDTGGDITHYADSVKGRFTISRDNAKNTLYLQMNSLRPEDTAVYWCATDEEYALGPNEFDYYGQGTLVTVSS	35.6	99
NIgG4E2A1(RS) (Fc fusion) chain 1: DVQLQESGGGLVQAGGSLRLSCAASGRTISRYAVGWFRRPPAKEREFIGINWSGGSTTYADSAEGRFIISRDNAKNTVYLQMNSLKPEDTAVYYCAVPSVLVQGGISNPSQYDYWGQGTQVTVSRSGPPCPPCPAPEFLGGPSVFLFPPKPKDTLMISRTPEVTCVVVDVSQEDPEVQFNWYVDGVEVHNAKTKPREEQFNSTYRVVSVLTVLHQDWLNGKEYKCKVSNKGLPSSIEKTISKAKGQPREPQVYTLPPCQEEMTKNQVSLWCLVKGFYPSDIAVEWESNGQPENNYKTTPPVLDSDGSFFLYSRLTVDKSRWQEGNVFSCSVMHEALHNHYTQKSLSLSLGK chain 2: EVQLLESGGGLVQPGGSLRLSCAASGFTFGNYDMAWVRQAPGKRPEWVSSIDTGGDITHYADSVKGRFTISRDNAKNTLYLQMNSLRPEDTAVYWCATDEEYALGPNEFDYYGQGTLVTVSSRSGPPCPPCPAPEFLGGPSVFLFPPKPKDTLMISRTPEVTCVVVDVSQEDPEVQFNWYVDGVEVHNAKTKPREEQFNSTYRVVSVLTVLHQDWLNGKEYKCKVSNKGLPSSIEKTISKAKGQPREPQVCTLPPSQEEMTKNQVSLSCAVKGFYPSDIAVEWESNGQPENNYKTTPPVLDSDGSFFLVSRLTVDKSRWQEGNVFSCSVMHEALHNHYTQKSLSLSLGK	2	97
NIgG4E2A1(G4S)1 (Fc fusion) chain 1: DVQLQESGGGLVQAGGSLRLSCAASGRTISRYAVGWFRRPPAKEREFIGINWSGGSTTYADSAEGRFIISRDNAKNTVYLQMNSLKPEDTAVYYCAVPSVLVQGGISNPSQYDYWGQGTQVTVSGGGGSGPPCPPCPAPEFLGGPSVFLFPPKPKDTLMISRTPEVTCVVVDVSQEDPEVQFNWYVDGVEVHNAKTKPREEQFNSTYRVVSVLTVLHQDWLNGKEYKCKVSNKGLPSSIEKTISKAKGQPREPQVYTLPPCQEEMTKNQVSLWCLVKGFYPSDIAVEWESNGQPENNYKTTPPVLDSDGSFFLYSRLTVDKSRWQEGNVFSCSVMHEALHNHYTQKSLSLSLGK chain 2: EVQLLESGGGLVQPGGSLRLSCAASGFTFGNYDMAWVRQAPGKRPEWVSSIDTGGDITHYADSVKGRFTISRDNAKNTLYLQMNSLRPEDTAVYWCATDEEYALGPNEFDYYGQGTLVTVSSGGGGSGPPCPPCPAPEFLGGPSVFLFPPKPKDTLMISRTPEVTCVVVDVSQEDPEVQFNWYVDGVEVHNAKTKPREEQFNSTYRVVSVLTVLHQDWLNGKEYKCKVSNKGLPSSIEKTISKAKGQPREPQVCTLPPSQEEMTKNQVSLSCAVKGFYPSDIAVEWESNGQPENNYKTTPPVLDSDGSFFLVSRLTVDKSRWQEGNVFSCSVMHEALHNHYTQKSLSLSLGK	2.3	95
CIgG4E1A1(G4S)3 (Fc fusion) chain 1: GPPCPPCPAPEFLGGPSVFLFPPKPKDTLMISRTPEVTCVVVDVSQEDPEVQFNWYVDGVEVHNAKTKPREEQFNSTYRVVSVLTVLHQDWLNGKEYKCKVSNKGLPSSIEKTISKAKGQPREPQVYTLPPCQEEMTKNQVSLWCLVKGFYPSDIAVEWESNGQPENNYKTTPPVLDSDGSFFLYSRLTVDKSRWQEGNVFSCSVMHEALHNHYTQKSLSLSLGKGGGGSGGGGSGGGGSDVQLQESGGGLVQAGGSLRLSCLASGRTFTTTSGYNMGWFRQAPGKEREFVAGIKWVSGSNRAYAESVKGRFTISRDNAKNTVYLQMNSLKPEDTAVYYCAAATGQSYVPIREYEYVYWGQGTQVTVS chain 2: GPPCPPCPAPEFLGGPSVFLFPPKPKDTLMISRTPEVTCVVVDVSQEDPEVQFNWYVDGVEVHNAKTKPREEQFNSTYRVVSVLTVLHQDWLNGKEYKCKVSNKGLPSSIEKTISKAKGQPREPQVCTLPPSQEEMTKNQVSLSCAVKGFYPSDIAVEWESNGQPENNYKTTPPVLDSDGSFFLVSRLTVDKSRWQEGNVFSCSVMHEALHNHYTQKSLSLSLGKGGGGSGGGGSGGGGSEVQLLESGGGLVQPGGSLRLSCAASGFTFGNYDMAWVRQAPGKRPEWVSSIDTGGDITHYADSVKGRFTISRDNAKNTLYLQMNSLRPEDTAVYWCATDEEYALGPNEFDYYGQGTLVTVSS	24.1	99

The remaining lines, values ahead:

EC50 [nM]	Max effect/effect 1 µM [%]	Binder
96.1	95	CIgG4E1A1(G4S)1 (Fc fusion) chain 1: GPPCPPCPAPEFLGGPSVFLFPPKPKDTLMISRTPEVTCVVVDVSQEDPEVQFNWYVDGVEVHNAKTKPREEQFNSTYRVVSVLTVLHQDWLNGKEYKCKVSNKGLPSSIEKTISKAKGQPREPQVYTLPPCQEEMTKNQVSLWCLVKGFYPSDIAVEWESNGQPENNYKTTPPVLDSDGSFFLYSRLTVDKSRWQEGNVFSCSVMHEALHNHYTQKSLSLSLGKGGGGSDVQLQESGGGLVQAGGSLRLSCLASGRTFTTTSGYNMGWFRQAPGKEREFVAGIKWVSGSNRAYAESVKGRFTISRDNAKNTVYLQMNSLKPEDTAVYYCAAATGQSYVPIREYEYVYWGQGTQVTVS chain 2: GPPCPPCPAPEFLGGPSVFLFPPKPKDTLMISRTPEVTCVVVDVSQEDPEVQFNWYVDGVEVHNAKTKPREEQFNSTYRVVSVLTVLHQDWLNGKEYKCKVSNKGLPSSIEKTISKAKGQPREPQVCTLPPSQEEMTKNQVSLSCAVKGFYPSDIAVEWESNGQPENNYKTTPPVLDSDGSFFLVSRLTVDKSRWQEGNVFSCSVMHEALHNHYTQKSLSLSLGKGGGGSEVQLLESGGGLVQPGGSLRLSCAASGFTFGNYDMAWVRQAPGKRPEWVSSIDTGGDITHYADSVKGRFTISRDNAKNTLYLQMNSLRPEDTAVYWCATDEEYALGPNEFDYYGQGTLVTVSS
1.9	98	NIgG4E2A1(G4S)2 (Fc fusion) chain 1: DVQLQESGGGLVQAGGSLRLSCAASGRTISRYAVGWFRRPPAKEREFIGINWSGGSTTYADSAEGRFIISRDNAKNTVYLQMNSLKPEDTAVYYCAVPSVLVQGGISNPSQYDYWGQGTQVTVSGGGGSGGGGSGPPCPPCPAPEFLGGPSVFLFPPKPKDTLMISRTPEVTCVVVDVSQEDPEVQFNWYVDGVEVHNAKTKPREEQFNSTYRVVSVLTVLHQDWLNGKEYKCKVSNKGLPSSIEKTISKAKGQPREPQVYTLPPCQEEMTKNQVSLWCLVKGFYPSDIAVEWESNGQPENNYKTTPPVLDSDGSFFLYSRLTVDKSRWQEGNVFSCSVMHEALHNHYTQKSLSLSLGK chain 2: EVQLLESGGGLVQPGGSLRLSCAASGFTFGNYDMAWVRQAPGKRPEWVSSIDTGGDITHYADSVKGRFTISRDNAKNTLYLQMNSLRPEDTAVYWCATDEEYALGPNEFDYYGQGTLVTVSSGGGGSGGGGSGPPCPPCPAPEFLGGPSVFLFPPKPKDTLMISRTPEVTCVVVDVSQEDPEVQFNWYVDGVEVHNAKTKPREEQFNSTYRVVSVLTVLHQDWLNGKEYKCKVSNKGLPSSIEKTISKAKGQPREPQVCTLPPSQEEMTKNQVSLSCAVKGFYPSDIAVEWESNGQPENNYKTTPPVLDSDGSFFLVSRLTVDKSRWQEGNVFSCSVMHEALHNHYTQKSLSLSLGK
	9	CIgG4E1A1(RS) (Fc fusion) chain 1: GPPCPPCPAPEFLGGPSVFLFPPKPKDTLMISRTPEVTCVVVDVSQEDPEVQFNWYVDGVEVHNAKTKPREEQFNSTYRVVSVLTVLHQDWLNGKEYKCKVSNKGLPSSIEKTISKAKGQPREPQVYTLPPCQEEMTKNQVSLWCLVKGFYPSDIAVEWESNGQPENNYKTTPPVLDSDGSFFLYSRLTVDKSRWQEGNVFSCSVMHEALHNHYTQKSLSLSLGKRSDVQLQESGGGLVQAGGSLRLSCLASGRTFTTTSGYNMGWFRQAPGKEREFVAGIKWVSGSNRAYAESVKGRFTISRDNAKNTVYLQMNSLKPEDTAVYYCAAATGQSYVPIREYEYVYWGQGTQVTVS chain 2: GPPCPPCPAPEFLGGPSVFLFPPKPKDTLMISRTPEVTCVVVDVSQEDPEVQFNWYVDGVEVHNAKTKPREEQFNSTYRVVSVLTVLHQDWLNGKEYKCKVSNKGLPSSIEKTISKAKGQPREPQVCTLPPSQEEMTKNQVSLSCAVKGFYPSDIAVEWESNGQPENNYKTTPPVLDSDGSFFLVSRLTVDKSRWQEGNVFSCSVMHEALHNHYTQKSLSLSLGKRSEVQLLESGGGLVQPGGSLRLSCAASGFTFGNYDMAWVRQAPGKRPEWVSSIDTGGDITHYADSVKGRFTISRDNAKNTLYLQMNSLRPEDTAVYWCATDEEYALGPNEFDYYGQGTLVTVSS
